# Experimental data as given in IntAct's records for PubMed 16415179.
# B1: Transcriptional repressor p66-alpha (Homo sapiens), Q86YP4 (parent)
# chain: MTEEACRTRSQKRALERDPTEDDVESKKIKMERGLLASDLNTDGDMRVTPEPGAGPTQGLLRATEATAMAMGRGEGLVGDGPVDMRTSHSDMKSERRPPSPDVIVLSDNEQPSSPRVNGLTTVALKETSTEALMKSSPEERERMIKQLKEELRLEEAKLVLLKKLRQSQIQKEATAQKPTGSVGSTVTTPPPLVRGTQNIPAGKPSLQTSSARMPGSVIPPPLVRGGQQASSKLGPQASSQVVMPPLVRGAQQIHSIRQHSSTGPPPLLLAPRASVPSVQIQGQRIIQQGLIRVANVPNTSLLVNIPQPTPASLKGTTATSAQANSTPTSVASVVTSAESPASRQAAAKLALRKQLEKTLLEIPPPKPPAPEMNFLPSAANNEFIYLVGLEEVVQNLLETQGRMSAATVLSREPYMCAQCKTDFTCRWREEKSGAIMCENCMTTNQKKALKVEHTSRLKAAFVKALQQEQEIEQRLLQQGTAPAQAKAEPTAAPHPVLKQVIKPRRKLAFRSGEARDWSNGAVLQASSQLSRGSATTPRGVLHTFSPSPKLQNSASATALVSRTGRHSERTVSAGKGSATSNWKKTPLSTGGTLAFVSPSLAVHKSSSAVDRQREYLLDMIPPRSIPQSATWK
# Variants of: B1
# Conditions: with mbd2_human MBD2, Q9UBB5
# Sequence of mbd2_human MBD2, Q9UBB5 (Q9UBB5 whole entry): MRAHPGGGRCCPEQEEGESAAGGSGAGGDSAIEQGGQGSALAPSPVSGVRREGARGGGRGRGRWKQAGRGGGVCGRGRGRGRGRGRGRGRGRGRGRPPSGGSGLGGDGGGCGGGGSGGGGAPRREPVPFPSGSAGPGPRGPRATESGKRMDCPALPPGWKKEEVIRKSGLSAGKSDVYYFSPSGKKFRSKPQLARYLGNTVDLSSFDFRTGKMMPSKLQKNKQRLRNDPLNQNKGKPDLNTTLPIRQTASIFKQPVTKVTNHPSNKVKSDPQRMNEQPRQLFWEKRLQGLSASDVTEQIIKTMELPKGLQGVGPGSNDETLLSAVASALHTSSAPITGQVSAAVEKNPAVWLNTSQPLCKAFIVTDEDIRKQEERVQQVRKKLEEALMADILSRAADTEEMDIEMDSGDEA
row,Variant,effect of a mutation on the interaction
1,K149R,decreasing interaction
